In patent publication CN116813768A:

Biological target: 大熊猫TSHβ特异序列(TSHβ-1), synthetic peptide (大熊猫 (giant panda))
Assay: indirect ELISA, TSHβ-1 peptide coated at 2 μg/mL, serial dilutions of purified antibody, OD450

效价 (ELISA titer) (fold dilution): > 1e+06
B1: 大熊猫TSHβ单克隆抗体 (secreted by hybridoma cell line TSHB-A, CCTCC NO: C202282) (antibody, V domains shown)
VH: EVKLVESGGGLVKPGGSLKLSCAASGFIFRRYAMSWVRQTPEKRLEWVAAISSGGNIYYLDNVKGRFTISRDDARNILYLQMSSLRSEDTAMYYCARDDYDEDWYFDVWGAGTTVTVSS
VL: DVLMTQIPLSLPVSLGDQASISCRSSQSIVHSNGNTYLEWYLQKPGQSPNLLIYKVSNRFSGVPDRFSGSGSGTDFTLKISRVEAEDLGVYYCFQGSHLPPTFGGGTKLEIK
